Data on 1 substance can be found in patent US20250154284A1.

This test has as its target MASP-2-T1 (aa 1-414) (human) (UniProt O00187). Nature of the test: ELISA, antibody titrated on truncated human MASP-2 T1 (aa 1-414).

benchmark antibody narsoplimab: the EC50 (read off the curve) (as a rule, the concentration that produces a half-maximal response) is 0.01 µg/mL.
